Test results: the supplement of paper PMC6757056
± gives the standard deviation of the averaged measurements.

B1: library; a variant is named by its letters at N, in order (parent)
chain: GCUGUCACCGGAAUACCAGCAUCGUCUUGAUGCCCUUGGAAGUCCGGUCUGAUGAGUCCNNNNNGGACGAAACAGC

Key:
theophylline [1] = variants of: B1; assay: FACS-Seq fitted mean relative fluorescence mCherry/BFP without ligand (log10 relative fluorescence); higher = higher reporter protein expression; settings: HEK293T, ligand present: no
How it was run: (§1)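 The ribozyme switch sat in an mCherry reporter, delivered by lentivirus into HEK293T libraries along with an EF1α-BFP marker. Enriched cells were incubated 48 h with or without ligand, sorted into 6 bins by mCherry/BFP, and bin genomic DNA was PCR-amplified, barcoded and MiSeq-sequenced. Fluorescence equals the fitted normal mean of the bin counts after normalization. Those log10(mCherry/BFP) means were scaled to five spiked-in control ribozymes.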

theophylline [2] = variants of: B1; assay: normalized RNA/DNA level with ligand (relative to sTRSVctl = 100) (log10 (% of sTRSVctl)); higher = less ribozyme self-cleavage, higher mRNA level; settings: ligand concentration (+) RNA-Seq: 5 mM, HEK293T, reporter: mCherry (pCS4076), ligand present: yes
How it was run: (§2)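 For each 6-well well, 4 µg of library plasmid encoding mCherry-linked ribozyme switches, or eGFP-linked ones in some ligand experiments, was transfected into HEK293T. Any ligand was added 1 h before transfection, and RNA was extracted with EDTA 72 h after it, then reverse-transcribed, amplified, barcoded and sequenced. RNA level was obtained by dividing RNA reads by DNA reads, normalizing to a spiked-in non-cleaving sequence or to the top sequences, then scaling and log-transforming. The top set was 25 sequences, scaling was ×100 with log10, and ≥100 DNA reads were required.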

theophylline [3] = variants of: B1; assay: normalized RNA/DNA level without ligand (relative to sTRSVctl = 100) (log10 (% of sTRSVctl)); higher = less ribozyme self-cleavage, higher mRNA level; settings: HEK293T, reporter: mCherry (pCS4076), ligand present: no
How it was run: as §2

theophylline [4] = variants of: B1; assay: FACS-Seq fitted mean relative fluorescence mCherry/BFP with ligand (log10 relative fluorescence); ligand concentration (+) FACS-Seq: 1 mM; higher = higher reporter protein expression; settings: HEK293T, ligand present: yes
How it was run: as §1

GCUGUCACCGGAAUACCAGCAUCGUCUUGAUGCCCUUGGAAGUCCGGUCUGAUGAGUCCCGGCCGGACGAAACAGC [CGGCC]
FACS-Seq fitted mean (log10) (theophylline [1]): 0.745 ± 0.024 | normalized RNA/DNA level with ligand (log10) (theophylline [2]): 2.06 ± 0.1 | normalized RNA/DNA level without ligand (log10) (theophylline [3]): 2.03 ± 0.1 | FACS-Seq fitted mean (log10) (theophylline [4]): 0.6421 ± 0.002

GCUGUCACCGGAAUACCAGCAUCGUCUUGAUGCCCUUGGAAGUCCGGUCUGAUGAGUCCCGGCAGGACGAAACAGC [CGGCA]
FACS-Seq fitted mean (log10) (theophylline [1]): 0.507 ± 0.017 | normalized RNA/DNA level with ligand (log10) (theophylline [2]): 1.96 ± 0.046 | normalized RNA/DNA level without ligand (log10) (theophylline [3]): 1.485 ± 0.0076 | FACS-Seq fitted mean (log10) (theophylline [4]): 0.7564 ± 0.0075

GCUGUCACCGGAAUACCAGCAUCGUCUUGAUGCCCUUGGAAGUCCGGUCUGAUGAGUCCUGGCUGGACGAAACAGC [UGGCU]
FACS-Seq fitted mean (log10) (theophylline [1]): 1.01 ± 0.063 | normalized RNA/DNA level with ligand (log10) (theophylline [2]): 2.01 ± 0.022 | normalized RNA/DNA level without ligand (log10) (theophylline [3]): 1.948 ± 0.011 | FACS-Seq fitted mean (log10) (theophylline [4]): 0.992 ± 0.099

GCUGUCACCGGAAUACCAGCAUCGUCUUGAUGCCCUUGGAAGUCCGGUCUGAUGAGUCCAGGGAGGACGAAACAGC [AGGGA]
FACS-Seq fitted mean (log10) (theophylline [1]): 0.303 ± 0.0048 | normalized RNA/DNA level with ligand (log10) (theophylline [2]): 2.04 ± 0.079 | normalized RNA/DNA level without ligand (log10) (theophylline [3]): 1.48 ± 0.1 | FACS-Seq fitted mean (log10) (theophylline [4]): 0.659 ± 0.029

GCUGUCACCGGAAUACCAGCAUCGUCUUGAUGCCCUUGGAAGUCCGGUCUGAUGAGUCCAGGGUGGACGAAACAGC [AGGGU]
FACS-Seq fitted mean (log10) (theophylline [1]): 0.635 ± 0.08 | normalized RNA/DNA level with ligand (log10) (theophylline [2]): 2.05 ± 0.073 | normalized RNA/DNA level without ligand (log10) (theophylline [3]): 1.74 ± 0.05 | FACS-Seq fitted mean (log10) (theophylline [4]): 0.897 ± 0.059

GCUGUCACCGGAAUACCAGCAUCGUCUUGAUGCCCUUGGAAGUCCGGUCUGAUGAGUCCAGGGCGGACGAAACAGC [AGGGC]
FACS-Seq fitted mean (log10) (theophylline [1]): 0.731 ± 0.092 | normalized RNA/DNA level with ligand (log10) (theophylline [2]): 1.95 ± 0.022 | normalized RNA/DNA level without ligand (log10) (theophylline [3]): 1.93 ± 0.094 | FACS-Seq fitted mean (log10) (theophylline [4]): 0.756 ± 0.037

GCUGUCACCGGAAUACCAGCAUCGUCUUGAUGCCCUUGGAAGUCCGGUCUGAUGAGUCCUGGGAGGACGAAACAGC [UGGGA]
FACS-Seq fitted mean (log10) (theophylline [1]): -0.00768 ± 0.057 | normalized RNA/DNA level with ligand (log10) (theophylline [2]): 2.02 ± 0.07 | normalized RNA/DNA level without ligand (log10) (theophylline [3]): 1.6195 ± 0.0012 | FACS-Seq fitted mean (log10) (theophylline [4]): 0.178 ± 0.054

GCUGUCACCGGAAUACCAGCAUCGUCUUGAUGCCCUUGGAAGUCCGGUCUGAUGAGUCCCGGACGGACGAAACAGC [CGGAC]
FACS-Seq fitted mean (log10) (theophylline [1]): 0.877 ± 0.081 | normalized RNA/DNA level with ligand (log10) (theophylline [2]): 1.93 ± 0.024 | normalized RNA/DNA level without ligand (log10) (theophylline [3]): 1.8 ± 0.087 | FACS-Seq fitted mean (log10) (theophylline [4]): 0.793 ± 0.037

GCUGUCACCGGAAUACCAGCAUCGUCUUGAUGCCCUUGGAAGUCCGGUCUGAUGAGUCCCGGAAGGACGAAACAGC [CGGAA]
FACS-Seq fitted mean (log10) (theophylline [1]): -0.0214 ± 0.074 | normalized RNA/DNA level with ligand (log10) (theophylline [2]): 1.9 ± 0.055 | normalized RNA/DNA level without ligand (log10) (theophylline [3]): 1.25 ± 0.17 | FACS-Seq fitted mean (log10) (theophylline [4]): 0.354 ± 0.0054

GCUGUCACCGGAAUACCAGCAUCGUCUUGAUGCCCUUGGAAGUCCGGUCUGAUGAGUCCCGGAUGGACGAAACAGC [CGGAU]
FACS-Seq fitted mean (log10) (theophylline [1]): 0.215 ± 0.064 | normalized RNA/DNA level with ligand (log10) (theophylline [2]): 2 ± 0.11 | normalized RNA/DNA level without ligand (log10) (theophylline [3]): 1.65 ± 0.11 | FACS-Seq fitted mean (log10) (theophylline [4]): 0.522 ± 0.046

GCUGUCACCGGAAUACCAGCAUCGUCUUGAUGCCCUUGGAAGUCCGGUCUGAUGAGUCCCGGGCGGACGAAACAGC [CGGGC]
FACS-Seq fitted mean (log10) (theophylline [1]): 0.725 ± 0.09 | normalized RNA/DNA level with ligand (log10) (theophylline [2]): 1.94 ± 0.065 | normalized RNA/DNA level without ligand (log10) (theophylline [3]): 2.01 ± 0.0021 | FACS-Seq fitted mean (log10) (theophylline [4]): 0.717 ± 0.016

GCUGUCACCGGAAUACCAGCAUCGUCUUGAUGCCCUUGGAAGUCCGGUCUGAUGAGUCCCGGGAGGACGAAACAGC [CGGGA]
FACS-Seq fitted mean (log10) (theophylline [1]): 0.508 ± 0.043 | normalized RNA/DNA level with ligand (log10) (theophylline [2]): 2.01 ± 0.033 | normalized RNA/DNA level without ligand (log10) (theophylline [3]): 1.74 ± 0.071 | FACS-Seq fitted mean (log10) (theophylline [4]): 0.753 ± 0.077

GCUGUCACCGGAAUACCAGCAUCGUCUUGAUGCCCUUGGAAGUCCGGUCUGAUGAGUCCAGGCAGGACGAAACAGC [AGGCA]
FACS-Seq fitted mean (log10) (theophylline [1]): 0.779 ± 0.085 | normalized RNA/DNA level with ligand (log10) (theophylline [2]): 1.99 ± 0.039 | normalized RNA/DNA level without ligand (log10) (theophylline [3]): 1.79 ± 0.057 | FACS-Seq fitted mean (log10) (theophylline [4]): 0.896 ± 0.1

GCUGUCACCGGAAUACCAGCAUCGUCUUGAUGCCCUUGGAAGUCCGGUCUGAUGAGUCCAGGCUGGACGAAACAGC [AGGCU]
FACS-Seq fitted mean (log10) (theophylline [1]): 0.7841 ± 0.0051 | normalized RNA/DNA level with ligand (log10) (theophylline [2]): 1.96 ± 0.053 | normalized RNA/DNA level without ligand (log10) (theophylline [3]): 1.936 ± 0.007 | FACS-Seq fitted mean (log10) (theophylline [4]): 0.847 ± 0.013

GCUGUCACCGGAAUACCAGCAUCGUCUUGAUGCCCUUGGAAGUCCGGUCUGAUGAGUCCUGGAUGGACGAAACAGC [UGGAU]
FACS-Seq fitted mean (log10) (theophylline [1]): 0.442 ± 0.064 | normalized RNA/DNA level with ligand (log10) (theophylline [2]): 2 ± 0.12 | normalized RNA/DNA level without ligand (log10) (theophylline [3]): 1.79 ± 0.056 | FACS-Seq fitted mean (log10) (theophylline [4]): 0.624 ± 0.073

GCUGUCACCGGAAUACCAGCAUCGUCUUGAUGCCCUUGGAAGUCCGGUCUGAUGAGUCCUGGACGGACGAAACAGC [UGGAC]
FACS-Seq fitted mean (log10) (theophylline [1]): 0.19 ± 0.013 | normalized RNA/DNA level with ligand (log10) (theophylline [2]): 2 ± 0.049 | normalized RNA/DNA level without ligand (log10) (theophylline [3]): 1.93 ± 0.056 | FACS-Seq fitted mean (log10) (theophylline [4]): 0.236 ± 0.01

GCUGUCACCGGAAUACCAGCAUCGUCUUGAUGCCCUUGGAAGUCCGGUCUGAUGAGUCCAGGACGGACGAAACAGC [AGGAC]
FACS-Seq fitted mean (log10) (theophylline [1]): 0.549 ± 0.067 | normalized RNA/DNA level with ligand (log10) (theophylline [2]): 1.97 ± 0.089 | normalized RNA/DNA level without ligand (log10) (theophylline [3]): 1.81 ± 0.12 | FACS-Seq fitted mean (log10) (theophylline [4]): 0.721 ± 0.074

GCUGUCACCGGAAUACCAGCAUCGUCUUGAUGCCCUUGGAAGUCCGGUCUGAUGAGUCCAGGAGGGACGAAACAGC [AGGAG]
FACS-Seq fitted mean (log10) (theophylline [1]): 0.642 ± 0.032 | normalized RNA/DNA level with ligand (log10) (theophylline [2]): 1.92 ± 0.022 | normalized RNA/DNA level without ligand (log10) (theophylline [3]): 1.73 ± 0.072 | FACS-Seq fitted mean (log10) (theophylline [4]): 0.834 ± 0.045
